Usually Km stands for the concentration of substrate that gives half-maximal velocity. Usually kcat stands for the maximal rate divided by the concentration of active sites. As usually defined, the kcat/Km is the second-order rate constant that governs catalysis at low substrate concentration.

Results on seven molecules are retold here after article PMC10836395, “Investigation of how gate residues in the main channel affect the catalytic activity of Scytalidium thermophilum catalase” (Acta Crystallographica. Section D, Structural Biology, 2024).

Like-named read-outs stand apart in the source and are kept apart here.

One series addresses CATPO T188D variant (Scytalidium thermophilum (Humicola insolens), UniProt M4GGR5, T207D). Nature of the series: biochemical. The note with it: catechol oxidation by T188D; read-out: K i.
The next series concerns the target mammalian catalase. On the set-up: method as in Vetrano et al., 2005. Conditions: ref Vetrano et al., 2005; cited from earlier work.
The target of a further series is CATPO E484A variant (Scytalidium thermophilum (Humicola insolens), UniProt M4GGR5, E503A). As to the kind of experiment: biochemical. The note with it: catechol oxidation by E484A; read-out: K i.
The next series deals with CATPO E484D variant (Scytalidium thermophilum (Humicola insolens), UniProt M4GGR5, E503D). Nature of the series: biochemical. The note with it: catechol oxidation by E484D; read-out: K i.
The target in a further series is CATPO T188A variant (Scytalidium thermophilum (Humicola insolens), UniProt M4GGR5, T207A). As to the kind of experiment: biochemical. Conditions: catechol oxidation by T188A; read-out: K i.
The target of a further series is CATPO T188F variant (Scytalidium thermophilum (Humicola insolens), UniProt M4GGR5, T207F). As to the kind of experiment: biochemical. Conditions: catechol oxidation by T188F; read-out: K i.
In another series the target is CATPO (Scytalidium thermophilum (Humicola insolens), UniProt M4GGR5). Nature of the series: Inhibition of catechol oxidation. The format is biochemical.
The target in another series is CATPO T188I variant (Scytalidium thermophilum (Humicola insolens), UniProt M4GGR5, T207I). Nature of the series: biochemical. Conditions: catechol oxidation by T188I; read-out: K i.
In a further series the target is CATPO E484I variant (Scytalidium thermophilum (Humicola insolens), UniProt M4GGR5, E503I). As to the kind of experiment: biochemical. Conditions: catechol oxidation by E484I; read-out: K i.
A further series concerns CATPO variants. Nature of the series: Effects on the phenol oxidase activity of the CATPO variants taken together. The note with it: hydrogen peroxide 1–100 mM or ethanol 2–200 mM, before or after the addition of catechol. The class given is biochemical, Scytalidium thermophilum. On the procedure: (§1) All inhibition assays were performed in triplicate.
Substrate in series [1]: Oc1ccccc1O
As to the kind of experiment: Phenol oxidase activity (H2O2-independent) measured spectrophotometrically by product formation at pH 7.0, 60 C, Michaelis-Menten fit. The class given is biochemical. The procedure: as §1

Substrate in series [2]: CCn1c(=NN=c2sc3cc(S(=O)(=O)O)ccc3n2CC)sc2cc(S(=O)(=O)O)ccc21
Nature of the series: purified protein, by the assay type. Conditions: 60.0 °C.

Substrate in series [3]: Oc1ccccc1O
Nature of the series: Spectrophotometric catechol oxidation assay at 420 nm, pH 7.0 and 60 °C; values not normalized to heme content. The class given is biochemical. The procedure: as §1
Tabl e S1 Comparison of gate residues at the entrance of the main channel among large subunit […]
PDB ID e Organism Gate residues
Tabl e S2 K i neti c const ant s
**Catalase activity **Phenol oxidase activity
*KM-app kcat kcat/*KM-app KM kcat kcat/KM
(mM) (s-1) (s-1 M-1) (mM) (s-1) (s-1 M-1) Rz Heme
RZ = A407/A280. T he values were normalized to heme content in each CAT PO variant. T he values in parentheses are for unnor malized val ues a nd shaded in gre y for ease of vie wi ng. *KM-app is the H2O2 concentratio n at Vmax/2 […]
Michaelis–Menten kinetics (Switala & Loewen, 2002).
**One unit of catalase is defined as the amo unt that catalyses the degradation o f 1 µmol H2O2 in 1 min. One unit of phenol oxidase corresponds to the enzyme catalysing the formation of 1 nmol of product per minute.

Substrate in series [4]: Oc1ccc(O)cc1
As to the kind of experiment: Spectrophotometric phenol oxidase assay without H2O2 at pH 7.0 and 60 °C, initial rates fitted to the Michaelis-Menten equation. The class given is biochemical. On the procedure:
as §1

Substrate in series [5]: CC(C)(C)c1ccc(O)c(O)c1
The description is as above. The class given is biochemical. On the procedure:
as §1

Substrate in series [6]: Cc1ccc(O)c(O)c1
The description is as above. The class given is biochemical. On the procedure: as §1

Substrate in series [7]: Oc1ccccc1O
Nature of the series: Phenol oxidase activity (H2O2-independent) measured spectrophotometrically by product formation at pH 7.0, 60 C, Michaelis-Menten fit. The format is biochemical. This is another data set of the same source.

For `[F-].[Na+]` [NaF, sodium fluoride], the Ki on CATPO T188D variant was 5 ± 0.5 mM; on mammalian catalase it was 0.75 mM; on CATPO E484A variant it was 7.8 ± 1.1 mM; on CATPO E484D variant, 0.66 ± 0.1 mM; at CATPO T188A variant, 0.65 ± 0.1 mM; at CATPO T188F variant, 6.4 ± 0.4 mM. The Ki at CATPO (catechol oxidation by CATPO, catechol 1 to 100 mM, read-out: K i) turned out to be 0.67 ± 0.1 mM; at CATPO T188I variant it was 5.8 ± 0.4 mM; on CATPO E484I variant, 5.5 ± 0.2 mM. The inhibition type entry in the series with mammalian catalase was “uncompetitive”; against CATPO (catechol oxidase activity of wild-type CATPO, Lineweaver–Burk), “uncompetitive”.

On to `CCO` [ethanol], for which, in the series with CATPO variants, the “effect of addition on phenol oxidase activity” value is given as “not affected”.

Take `OO` [hydrogen peroxide]: the “effect of addition on phenol oxidase activity” value with CATPO variants is “not affected”.

B1: E484I (Mycothermus thermophilus; E503I) (protein)
chain: TCPFADPAALYSRQDTTSGQSPLAAYEVDDSTGYLTSDVGGPIQDQTSLKAGIRGPTLLEDFMFRQKIQHFDHERVPERAVHARGAGAHGTFTSYADWSNITAASFLNATGKQTPVFVRFSTVAGSRGSADTARDVHGFATRFYTDEGNFDIVGNNIPVFFIQDAIQFPDLIHSVKPRPDNEIPQAATAHDSAWDFFSQQPSTMHTLFWAMSGHGIPRSYRHMDGFGVHTFRFVKDDGSSKLIKWHFKSRQGKASLVWEEAQVLSGKNADFHRQDLWDAIESGNGPEWDVCVQIVDESQAQAFGFDLLDPTKIIPEEYAPLTKLGLLKLDRNPTNYFAETEQVMFQPGHIVRGIDFTEDPLLQGRLFSYLDTQLNRNGGPNFEQLPINMPRVPIHNNNRDGAGQMFIHRNKYPYTPNTLNSGYPRQANQNAGRGFFTAPGRTASGALVREVSPTFNDHWSQPRLFFNSLTPVEQQFLVNAMRFIISLVKSEEVKKNVLTQLNRVSHDVAVRVAAAIGLGAPDADDTYYHNNKTAGVSIVGSGPLPTIKTLRVGILATTSESSALDQAAQLRTRLEKDGLVVTVVAETLREGVDQTYSTADATGFDGVVVVDGAAALFASTASSPLFPTGRPLQIFVDAYRWGKPVGVCGGKSSEVLDAADVPEDGDGVYSEESVDMFVEEFEKGLATFRFTDRFALDS
notes: recombinant, pET-28-TEV-CATPO; contains heme b; Rz 0.5
On to B1, for which the Km in [1] was 30 ± 1.0 mM; in series [2], 50 ± 0.5 mM; in series [3], 40 mM; in series [4], 45 ± 1.3 mM; in series [5], 37 ± 0.4 mM; in series [6] it was 35 ± 0.7 mM. Further, the kcat in series [1] was 26500 ± 1320 s⁻¹. In addition, the kcat/Km in [1] stood at 880000 ± 7200 M⁻¹ s⁻¹.

B2: T188I (Mycothermus thermophilus; T207I) (protein)
chain: TCPFADPAALYSRQDTTSGQSPLAAYEVDDSTGYLTSDVGGPIQDQTSLKAGIRGPTLLEDFMFRQKIQHFDHERVPERAVHARGAGAHGTFTSYADWSNITAASFLNATGKQTPVFVRFSTVAGSRGSADTARDVHGFATRFYTDEGNFDIVGNNIPVFFIQDAIQFPDLIHSVKPRPDNEIPQAAIAHDSAWDFFSQQPSTMHTLFWAMSGHGIPRSYRHMDGFGVHTFRFVKDDGSSKLIKWHFKSRQGKASLVWEEAQVLSGKNADFHRQDLWDAIESGNGPEWDVCVQIVDESQAQAFGFDLLDPTKIIPEEYAPLTKLGLLKLDRNPTNYFAETEQVMFQPGHIVRGIDFTEDPLLQGRLFSYLDTQLNRNGGPNFEQLPINMPRVPIHNNNRDGAGQMFIHRNKYPYTPNTLNSGYPRQANQNAGRGFFTAPGRTASGALVREVSPTFNDHWSQPRLFFNSLTPVEQQFLVNAMRFEISLVKSEEVKKNVLTQLNRVSHDVAVRVAAAIGLGAPDADDTYYHNNKTAGVSIVGSGPLPTIKTLRVGILATTSESSALDQAAQLRTRLEKDGLVVTVVAETLREGVDQTYSTADATGFDGVVVVDGAAALFASTASSPLFPTGRPLQIFVDAYRWGKPVGVCGGKSSEVLDAADVPEDGDGVYSEESVDMFVEEFEKGLATFRFTDRFALDS
notes: recombinant, pET-28-TEV-CATPO; contains heme b; Rz 0.4
Regarding B2, the Km in series [1] amounted to 31 ± 0.5 mM; in series [2], 48 ± 0.7 mM; in series [3], 40 mM; in [4], 44 ± 0.4 mM; in [5], 35 ± 0.5 mM; in series [6], 34 ± 1.2 mM. Moreover, in series [1], the kcat came out at 28400 ± 1100 s⁻¹. Further, in series [1], the kcat/Km came out at 920000 ± 4500 M⁻¹ s⁻¹.

B3: T188D (Mycothermus thermophilus; T207D) (protein)
chain: TCPFADPAALYSRQDTTSGQSPLAAYEVDDSTGYLTSDVGGPIQDQTSLKAGIRGPTLLEDFMFRQKIQHFDHERVPERAVHARGAGAHGTFTSYADWSNITAASFLNATGKQTPVFVRFSTVAGSRGSADTARDVHGFATRFYTDEGNFDIVGNNIPVFFIQDAIQFPDLIHSVKPRPDNEIPQAADAHDSAWDFFSQQPSTMHTLFWAMSGHGIPRSYRHMDGFGVHTFRFVKDDGSSKLIKWHFKSRQGKASLVWEEAQVLSGKNADFHRQDLWDAIESGNGPEWDVCVQIVDESQAQAFGFDLLDPTKIIPEEYAPLTKLGLLKLDRNPTNYFAETEQVMFQPGHIVRGIDFTEDPLLQGRLFSYLDTQLNRNGGPNFEQLPINMPRVPIHNNNRDGAGQMFIHRNKYPYTPNTLNSGYPRQANQNAGRGFFTAPGRTASGALVREVSPTFNDHWSQPRLFFNSLTPVEQQFLVNAMRFEISLVKSEEVKKNVLTQLNRVSHDVAVRVAAAIGLGAPDADDTYYHNNKTAGVSIVGSGPLPTIKTLRVGILATTSESSALDQAAQLRTRLEKDGLVVTVVAETLREGVDQTYSTADATGFDGVVVVDGAAALFASTASSPLFPTGRPLQIFVDAYRWGKPVGVCGGKSSEVLDAADVPEDGDGVYSEESVDMFVEEFEKGLATFRFTDRFALDS
notes: as for B1
For the molecule B3, the Km in series [1] was 25 ± 1.5 mM; in series [2], 55 ± 1.0 mM; in [3] it was 33 mM; in [4], 46 ± 1.0 mM; in series [5], 38 ± 0.5 mM; in [6], 30 ± 0.1 mM. Further, the kcat in [1] is 22300 ± 669 s⁻¹. In series [1], the kcat/Km is 890000 ± 7000 M⁻¹ s⁻¹.

B4: CATPO (Mycothermus thermophilus) (protein)
chain: TCPFADPAALYSRQDTTSGQSPLAAYEVDDSTGYLTSDVGGPIQDQTSLKAGIRGPTLLEDFMFRQKIQHFDHERVPERAVHARGAGAHGTFTSYADWSNITAASFLNATGKQTPVFVRFSTVAGSRGSADTARDVHGFATRFYTDEGNFDIVGNNIPVFFIQDAIQFPDLIHSVKPRPDNEIPQAATAHDSAWDFFSQQPSTMHTLFWAMSGHGIPRSYRHMDGFGVHTFRFVKDDGSSKLIKWHFKSRQGKASLVWEEAQVLSGKNADFHRQDLWDAIESGNGPEWDVCVQIVDESQAQAFGFDLLDPTKIIPEEYAPLTKLGLLKLDRNPTNYFAETEQVMFQPGHIVRGIDFTEDPLLQGRLFSYLDTQLNRNGGPNFEQLPINMPRVPIHNNNRDGAGQMFIHRNKYPYTPNTLNSGYPRQANQNAGRGFFTAPGRTASGALVREVSPTFNDHWSQPRLFFNSLTPVEQQFLVNAMRFEISLVKSEEVKKNVLTQLNRVSHDVAVRVAAAIGLGAPDADDTYYHNNKTAGVSIVGSGPLPTIKTLRVGILATTSESSALDQAAQLRTRLEKDGLVVTVVAETLREGVDQTYSTADATGFDGVVVVDGAAALFASTASSPLFPTGRPLQIFVDAYRWGKPVGVCGGKSSEVLDAADVPEDGDGVYSEESVDMFVEEFEKGLATFRFTDRFALDS
notes: recombinant, pET-28-TEV-CATPO; contains heme d; Rz 0.8
As for B4, the Km in series [2] worked out at 50 ± 1.5 mM; in series [7], 33 ± 0.5 mM; in series [4], 45 ± 1.5 mM; in series [5], 36 ± 1.0 mM; in series [6], 35 ± 0.3 mM. Also, the kcat in [7] stood at 7300 ± 365 s⁻¹. Further, the kcat/Km in series [7] stood at 220000 ± 13000 M⁻¹ s⁻¹.
